Laboratory results taken from patent publication US20220242939A1 (BIOARCTIC, published 2022).
Non-standard residues stand in square brackets, D forms with d. No end group written: not given here. Ahx = NCCCCCC(=O)O

Biological target: T1, A199 N-terminal neo-epitope peptide AGQPLQ-Acp-C (SEQ ID NO:51) conjugated to BSA (human, not fully specified (residue 8); printed as AGQPLQ-Acp-C; also: C-terminal Cys conjugated to BSA carrier)
T1 construct: BSA carrier; also called A199-BSA peptide
T1 peptide: AGQPLQ[Ahx]C
Experiment: direct ELISA, second protocol; proteins coated at 0.1 uM, BSA peptides at 1 ug/ml; antibody in 3-fold dilutions from 3000 ng/ml; blank reduced OD 450 nm
Description: The screening was performed according to standard ELISA protocols. Briefly, 1 μg/ml solutions of BSA-conjugated neo-epitope peptides, recombinant C-terminal ApoE fragment, negative control peptide and full-length ApoE were prepared by dilution in PBS. 50 μl/well were added to an ELISA half-area 96 well microtiter plate, the plate was sealed with adhesive sealer and incubated over night at 4° C. After discarding the solution, the plates were blocked with 150 μl/well of protein-free blocking solution (Pierce) for 1 h at room temperature with shake (900 rpm). The plates were washed four times with washing buffer containing 0.28 mM NaH₂PO₄, 2.5 mM Na₂HPO₄, 150 mM NaCl, 0.1% TWEEN®-20 and 0.0075% Kathon CG. […] An anti-ApoE C-terminal antibody was used as a reference antibody (ApoE E-8 mouse monoclonal, cat. no. sc-393302; Santa Cruz Biotechnology). 50 μl/well were added into the ELISA plates and incubated for 2 h at room temperature with shake (900 rpm). The plates were washed four times as described previously. […] After another wash (as described previously), 50 μl/well of K-Blue® aqueous substrate (Neogen) were added, and the reaction was stopped after 5-15 min with 50 μl/well of 0.5 M […]. The optical density at 450 nm was read using an ELISA reader (Tecan). The optical density was plotted against the antibody concentration to generate concentration-response curves (FIG. 16).
These were added in the same molarity (0.1 μM) to provide an equal number of molecules available for binding by the antibodies (BSA-coupled peptides were coated at 1 μg/ml as before).

EC50 (read off the curve): ~0.1 µg/mL
B1: 28F2, recombinant IgG2c antibody (antibody, V domains shown)
VH: QIQLVQSGPDLKKPGETVKISCKASGYTFTNYAMHWMKQAPGKALKWMGWINTYTGEPTFADDFKGRFAFSLETSASTAYLQINSLKNEDMATYFCAREGYYDRSHYFDYWGQGTTLTVSS
VL: DVLMTQTPLSLPVSLGDQASISCRSSLSLVHGDGNTYLEWYLQKPGQSPKLLIYKVSNRFSGVPDRFSGSGSGTDFTLKISRVEAEDLGVYYCLQGSHIPFTFGSGTKLEIK
